The target in assay [1] is human CD20 (human) (UniProt P11836). Put plainly: Scatchard analysis, iodinated RITUXAN with unlabeled RITUXAN on adherent CHO clone 6D7 cells expressing human CD20 (n=3).
For assay [2] the target is unchanged. As to the kind of experiment: cell ELISA on CD20-transfected CHO clone C12M, suspension format, 300,000 cells/well.
The target is the same in assay [3]. Put plainly: Scatchard analysis, iodinated RITUXAN with unlabeled RITUXAN on WIL2 cells in suspension (n=3).
The target is the same in assay [4]. Put plainly: cell ELISA on CD20-transfected CHO clone 1H6, suspension format, 300,000 cells/well. On the technique in general: An ELISA detects its analyte on a solid surface through an enzyme-linked reagent.
For assay [5] the target is unchanged. Put plainly: Scatchard analysis, iodinated RITUXAN with unlabeled RITUXAN on adherent CHO clone C12M cells expressing human CD20 (n=3).
For assay [6] the target is unchanged. As to the kind of experiment: Scatchard analysis, iodinated RITUXAN with unlabeled RITUXAN on CHO clone 2H3 cells in suspension (n=3).
For assay [7] the target is unchanged. As to the kind of experiment: cell ELISA on CD20-transfected CHO clone 2H3, suspension format, 300,000 cells/well.
Assay [8] has the same target. Put plainly: Scatchard analysis, iodinated RITUXAN with unlabeled RITUXAN on adherent CHO clone 4H10 cells expressing human CD20 (n=3).

Sequence of human CD20 (human) (P11836 whole entry): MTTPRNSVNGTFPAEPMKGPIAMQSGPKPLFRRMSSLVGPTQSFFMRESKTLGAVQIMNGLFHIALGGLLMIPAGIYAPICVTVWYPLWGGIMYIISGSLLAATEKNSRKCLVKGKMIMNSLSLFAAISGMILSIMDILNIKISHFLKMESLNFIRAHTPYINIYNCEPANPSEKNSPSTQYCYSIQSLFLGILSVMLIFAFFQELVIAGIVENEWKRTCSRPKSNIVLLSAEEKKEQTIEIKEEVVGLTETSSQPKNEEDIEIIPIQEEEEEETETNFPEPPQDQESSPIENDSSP

By Kd is commonly meant the concentration at which binding is half-saturated. Lower therefore signals a tighter complex. In general, EC50 (read off the curve) refers to the concentration needed to bring the measured effect to its halfway point. The low end stands for an effect from little substance, the high end for a need for much substance. For RITUXAN® (rituximab) (antibody), the dissociation constant (Kd) in the assay with human CD20 (human) [1] stood at 5.97 nM; with human CD20 (human) [3], 3.91 nM; with human CD20 (human) [5], 13.7 nM; with human CD20 (human) [6] it was 8.57 nM; with human CD20 (human) [8] it was 5.5 nM. Further, the EC50 (read off the curve) in the assay with human CD20 (human) [2], with human CD20 (human) [4] and with human CD20 (human) [7] was 0.2 µg/mL each time.
